In article doi:10.1101/2025.11.01.685996 (bioRxiv, 2025):

Key:
[1] = target: human C3aR with C-terminal SmBiT (hC3aR) (human) (UniProt Q16581)
[2] = target: human C5aR1 with C-terminal SmBiT (hC5aR1-SmBiT) (human) (UniProt P21730)
[3] = target: human C5aR1-Rluc8 (human) (UniProt P21730)
[4] = target: mouse C5aR2, purified from Sf9 cells (mC5aR2) (not stated | mouse) (UniProt P08173); test: SEC
[5] = target: mouse C5aR2, purified from Sf9 cells (mC5aR2) (not stated | mouse) (UniProt P08173); test: cryo-EM structure
[6] = target: T1, mouse C5aR1, purified (mC5aR1) for cryo-EM and HDX-MS (mouse, UniProt P30993 1-351); test: cryo-EM structure
T1 sequence: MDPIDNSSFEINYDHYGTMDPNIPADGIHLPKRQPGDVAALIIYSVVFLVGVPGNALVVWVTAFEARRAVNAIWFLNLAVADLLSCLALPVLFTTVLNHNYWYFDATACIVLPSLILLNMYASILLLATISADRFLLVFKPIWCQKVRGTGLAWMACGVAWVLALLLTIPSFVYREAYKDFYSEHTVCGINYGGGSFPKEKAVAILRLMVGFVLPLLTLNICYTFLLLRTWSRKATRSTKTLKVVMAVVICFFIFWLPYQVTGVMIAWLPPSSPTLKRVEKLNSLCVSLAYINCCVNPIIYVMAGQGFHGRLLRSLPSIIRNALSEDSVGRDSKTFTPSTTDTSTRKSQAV

Sequence of human C3aR with C-terminal SmBiT (hC3aR) (human) (Q16581 whole entry): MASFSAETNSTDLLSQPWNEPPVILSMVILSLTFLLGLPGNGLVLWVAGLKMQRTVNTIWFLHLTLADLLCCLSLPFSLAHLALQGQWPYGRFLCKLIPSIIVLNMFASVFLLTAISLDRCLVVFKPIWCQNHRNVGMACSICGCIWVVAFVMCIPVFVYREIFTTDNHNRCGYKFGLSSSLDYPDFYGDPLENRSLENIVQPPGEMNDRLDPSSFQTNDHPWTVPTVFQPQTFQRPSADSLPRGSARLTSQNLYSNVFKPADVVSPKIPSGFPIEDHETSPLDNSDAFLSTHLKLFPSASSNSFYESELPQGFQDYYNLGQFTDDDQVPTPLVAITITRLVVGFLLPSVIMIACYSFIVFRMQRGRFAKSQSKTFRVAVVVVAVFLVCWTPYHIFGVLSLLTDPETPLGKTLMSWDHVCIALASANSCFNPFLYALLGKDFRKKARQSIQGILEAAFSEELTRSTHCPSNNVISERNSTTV
Sequence of human C5aR1 with C-terminal SmBiT (hC5aR1-SmBiT) (human) (P21730 whole entry): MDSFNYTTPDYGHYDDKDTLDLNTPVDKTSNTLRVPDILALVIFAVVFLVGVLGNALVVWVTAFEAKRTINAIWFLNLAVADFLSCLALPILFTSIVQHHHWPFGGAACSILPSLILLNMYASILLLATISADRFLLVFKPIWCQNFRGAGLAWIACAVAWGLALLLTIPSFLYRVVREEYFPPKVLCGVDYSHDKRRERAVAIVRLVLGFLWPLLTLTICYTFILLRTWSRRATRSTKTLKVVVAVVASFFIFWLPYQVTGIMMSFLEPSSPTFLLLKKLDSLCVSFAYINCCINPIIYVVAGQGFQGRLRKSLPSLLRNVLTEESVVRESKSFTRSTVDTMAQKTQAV
Sequence of human C5aR1-Rluc8 (human) (P21730 whole entry): as above

Molecule: R8Y, [Tyr1,Tyr8]BM2020-8, C5aR2-selective peptide agonist
- activation of C3aR (Figure S10D and Table S1) [1]: > 10 µM
- activation of C5aR1 (Figure S10D and Table S1) [2]: > 10 µM

Molecule: [Tyr8]BM2020-8 peptide
- efficacy at C5aR1 relative to C5a; read-out not given [3]: 41%

Molecule: mouse C5aR2, purified from Sf9 cells (mC5aR2) (from UniProt P08173 2-23) (receptor)
- stoichiometry N [4]: 2
- stoichiometry N [5]: 2

B1: mouse complement anaphylatoxin C5a, recombinant (mC5a) (ligand)
chain: NLHLLRQKIEEQAAKYKHSVPKKCCYDGARVNFYETCEERVARVTIGPLCIRAFNECCTIANKIRKESPHKPVQLGR
- binding result [6]: binds
